Patent US20260167721A1 (ABLEXIS, published 2026)
Values belong to the binder of their own block, whether it stands above or below them.

Legend:
[1] = molecular target: T1, recombinant human CD3 epsilon/delta heterodimer (human, UniProt P07766 23-126; P04234 22-105); test: Octet BLI, mAb on FAB2G sensor, hCD3 E/D 200-50 nM; R^2 0.96
T1 construct: Recombinant protein in solution (200-50 nM) in the Octet assay; also called hCD3 E/D; human CD3E/D

[2] = molecular target: T2, recombinant human CD3 epsilon/gamma heterodimer (human, UniProt P07766 23-126; P09693 23-116); test: Octet BLI, mAb on FAB2G sensor, hCD3 E/G 200-50 nM; R^2 0.96
T2 construct: Recombinant protein in solution (200-50 nM) in the Octet assay; also called hCD3 E/G
T2 sequence (P07766 23-126, chain 1 of 2): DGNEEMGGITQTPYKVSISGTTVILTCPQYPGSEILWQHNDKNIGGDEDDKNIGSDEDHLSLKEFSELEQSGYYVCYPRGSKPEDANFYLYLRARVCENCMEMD
T2 sequence (P09693 23-116, chain 2 of 2): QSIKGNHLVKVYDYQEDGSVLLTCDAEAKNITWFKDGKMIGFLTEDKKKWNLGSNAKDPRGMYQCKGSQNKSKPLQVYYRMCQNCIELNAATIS

[3] = molecular target: CD3 on effector cells (human Pan-T or PBMC) (human, UniProt P07766 23-207; P04234 22-171; P09693 23-182; P20963 22-164); test: cell-based or functional assay
Chain of CD3 on effector cells (human Pan-T or PBMC) (P07766 23-207, chain 1 of 4): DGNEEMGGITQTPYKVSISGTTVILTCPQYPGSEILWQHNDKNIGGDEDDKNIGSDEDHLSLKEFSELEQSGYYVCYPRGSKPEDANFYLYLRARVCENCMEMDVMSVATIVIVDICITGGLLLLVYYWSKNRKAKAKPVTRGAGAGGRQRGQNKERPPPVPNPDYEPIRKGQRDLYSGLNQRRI
Chain of CD3 on effector cells (human Pan-T or PBMC) (P04234 22-171, chain 2 of 4): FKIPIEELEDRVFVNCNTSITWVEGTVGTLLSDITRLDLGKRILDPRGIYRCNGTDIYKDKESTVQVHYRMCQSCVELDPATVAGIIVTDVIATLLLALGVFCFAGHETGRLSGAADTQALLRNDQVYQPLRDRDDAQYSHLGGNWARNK
Chain of CD3 on effector cells (human Pan-T or PBMC) (P09693 23-182, chain 3 of 4): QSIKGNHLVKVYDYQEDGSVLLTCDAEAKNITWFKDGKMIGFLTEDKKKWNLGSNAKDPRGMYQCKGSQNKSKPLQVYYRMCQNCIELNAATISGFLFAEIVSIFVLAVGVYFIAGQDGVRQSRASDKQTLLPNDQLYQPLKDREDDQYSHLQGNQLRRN
Chain of CD3 on effector cells (human Pan-T or PBMC) (P20963 22-164, chain 4 of 4): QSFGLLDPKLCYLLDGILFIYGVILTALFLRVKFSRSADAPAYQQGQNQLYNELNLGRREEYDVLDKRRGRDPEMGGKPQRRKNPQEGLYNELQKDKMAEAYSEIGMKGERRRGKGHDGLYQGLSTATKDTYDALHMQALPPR

recombinant CD3 proteins [4] = test: Octet (BLI), bispecific antibody against recombinant CD3 proteins
[5] = molecular target: T3, human CD3 (TCR/CD3 complex) on the cell surface (human, UniProt P07766 23-207; P09693 23-182; P04234 22-171; P20963 22-164); test: flow cytometry, Pan-T cells, 1 ug/mL
T3 construct: whole, on cells; also called CD3 on Pan-T cells; CD3 on Jurkat WT cells
T3 sequence (P07766 23-207, chain 1 of 4): as the sequence (P07766 23-207, chain 1 of 4) above
T3 sequence (P09693 23-182, chain 2 of 4): as the sequence (P09693 23-182, chain 3 of 4) above
T3 sequence (P04234 22-171, chain 3 of 4): as the sequence (P04234 22-171, chain 2 of 4) above
T3 sequence (P20963 22-164, chain 4 of 4): as the sequence (P20963 22-164, chain 4 of 4) above

[6] = molecular target: T3, human CD3 (TCR/CD3 complex) on the cell …; test: flow cytometry, Pan-T cells, 10 ug/mL
[7] = molecular target: T3, human CD3 (TCR/CD3 complex) on the cell …; test: flow cytometry, Jurkat WT cells, 1 ug/mL
[8] = molecular target: T3, human CD3 (TCR/CD3 complex) on the cell …; test: flow cytometry, Jurkat WT cells, 10 ug/mL
recombinant CD3 proteins [9] = molecular target: T4, recombinant CD3 proteins (UniProt P07766 23-126); test: Octet BLI, recombinant CD3; Full R^2 0.995
T4 construct: elsewhere it uses human CD3 E/D and E/G heterodimers
T4 sequence (P07766 23-126): as the sequence (P07766 23-126, chain 1 of 2) above

[10] = molecular target: T3, human CD3 (TCR/CD3 complex) on the cell …; test: flow cytometry, gMFI Jurkat WT over Jurkat TCRb KO, 1 ug/mL
[11] = molecular target: T3, human CD3 (TCR/CD3 complex) on the cell …; test: flow cytometry, gMFI Jurkat WT over Jurkat TCRb KO, 10 ug/mL
recombinant CD3 proteins [12] = molecular target: T4, recombinant CD3 proteins; test: Octet BLI, recombinant CD3; Full R^2 0.000*
[13] = molecular target: T1, recombinant human CD3 epsilon/delta …; test: Octet BLI, mAb on FAB2G sensor, hCD3 E/D 200-50 nM; R^2 0.94
[14] = molecular target: T2, recombinant human CD3 epsilon/gamma …; test: Octet BLI, mAb on FAB2G sensor, hCD3 E/G 200-50 nM; R^2 0.94

T1 sequence (P07766 23-126, stated change not applied, chain 1 of 2): as the sequence (P07766 23-126, chain 1 of 2) above
T1 sequence (P04234 22-105, stated change not applied, chain 2 of 2): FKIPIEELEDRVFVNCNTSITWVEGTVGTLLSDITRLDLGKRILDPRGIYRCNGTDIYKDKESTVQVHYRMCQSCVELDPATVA

B1: ABL-CD3-33 (antibody, V domains shown)
VH: EVQLVESGGGLVKPGGSLRLSCAASGFTFSSYSMNWVRQAPGKGLEWVSSISRSSSYIYYADSVKGRFTISRDNAKNSLYLQMNSLRAEDTAVYYCAREPPTLGMDYWGQGTLVTVSS
VL: NFMLTQPHSVSESPGKTVTISCTRSSGSIASNYVQWYQQRPGSSPTTVIYEDNQRPSGVPDRFSGSIDSSSNSASLTISGLKTEDEADYYCQSYYNSNRVFGGGTKLTVL
notes: Chimeric hybridoma mAb: human V, CH1, upper hinge; mouse middle hinge, CH2, CH3
- Kd [1]: 56.2 nM
- Response [1]: 0.33
- koff [1]: 0.0206 s⁻¹
- kon [1]: 366000 M⁻¹ s⁻¹
- Kd [2]: 60 nM
- koff [2]: 0.0155 s⁻¹
- kon [2]: 259000 M⁻¹ s⁻¹

B4: CD3 × CD33-BspAb124 (bispecific antibody)
chain 1: not shown
chain 2: EVQLVQSGAEVKKPGSSVKVSCKASGYTITDSNIHWVRQAPGQSLEWIGYIYPYNGGTDYNQKFKNRATLTVDNPTNTAYMELSSLRSEDTAFYYCVNGNPWLAYWGQGTLVTVSSASTKGPSVFPLAPSSKSTSGGTAALGCLVKDYFPEPVTVSWNSGALTSGVHTFPAVLQSSGLYSLSSVVTVPSSSLGTQTYICNVNHKPSNTKVDKRVEPKSCDKTHTCPPCPAPEFEGGPSVFLFPPKPKDTLMISRTPEVTCVVVDVSHEDPEVKFNWYVDGVEVHNAKTKPREEQYNSTYRVVSVLTVLHQDWLNGKEYKCKVSNKALPASIEKTISKAKGQPREPQVCTLPPSREEMTKNQVSLSCAVKGFYPSDIAVEWESNGQPENNYKTTPPVLDSDGSFFLVSKLTVDKSRWQQGNVFSCSVMHEALHNRFTQKSLSLSPGK
chain 3: DIQLTQSPSTLSASVGDRVTITCRASESLDNYGIRFLTWFQQKPGKAPKLLMYAASNQGSGVPSRFSGSGSGTEFTLTISSLQPDDFATYYCQQTKEVPWSFGQGTKVEVKRTVAAPSVFIFPPSDEQLKSGTASVVCLLNNFYPREAKVQWKVDNALQSGNSQESVTEQDSKDSTYSLSSTLTLSKADYEKHKVYACEVTHQGLSSPVTKSFNRGEC
- Kd (recombinant CD3 proteins [12]): < 0.001 nM
- koff (recombinant CD3 proteins [12]): < 1e-07 s⁻¹
- kon (recombinant CD3 proteins [12]): 12500 M⁻¹ s⁻¹

B5: ABL-CD3-29 (antibody, V domains shown)
VH: EVQLVQSGAEVKKPGESLKISCKGSGYSFISYWIAWVRQMPGKGLEWMGIIYPGDSETRYRPSFQGQVTISADKSINTAYLQWSSLKAADTAMYYCARQGAYDGFDIWGQGTMVTVSS
VL: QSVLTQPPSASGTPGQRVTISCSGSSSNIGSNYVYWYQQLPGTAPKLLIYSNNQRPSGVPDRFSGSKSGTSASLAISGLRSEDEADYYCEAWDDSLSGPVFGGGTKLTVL
notes: as for B1
- Kd [13]: 2.63 nM
- koff [13]: 0.000816 s⁻¹
- kon [13]: 310000 M⁻¹ s⁻¹
- Kd [14]: 2.5 nM
- Response [14]: 0.44
- koff [14]: 0.000852 s⁻¹
- kon [14]: 341000 M⁻¹ s⁻¹

Further lines, with some results ahead:

- Kd (recombinant CD3 proteins [4]): 20.1 nM
- Response (recombinant CD3 proteins [4]): 0.73
- koff (recombinant CD3 proteins [4]): 0.00652 s⁻¹
- kon (recombinant CD3 proteins [4]): 325000 M⁻¹ s⁻¹
B2: Control Humanized anti-CD3 (high affinity) scFv-Fc knob/TM, as bispecific with gemtuzumab (bispecific antibody)
scFv: EVQLVESGGGLVQPGGSLRLSCAASGFTFSTYAMNWVRQAPGKGLEWVGRIRSKYNNYATYYADSVKGRFTISRDDSKNTLYLQMNSLRAEDTAVYYCVRHGNFGDSYVSWFAYWGQGTLVTVSSGKPGSGKPGSGKPGSGKPGSQAVVTQEPSLTVSPGGTVTLTCGSSTGAVTTSNYANWVQQKPGKSPRGLIGGTNKRAPGVPARFSGSLLGGKAALTISGAQPEDEADYYCALWYSNHWVFGGGTKLTVLGGGGSDKTHTCPPCPAPEFEGGPSVFLFPPKPKDTLMISRTPEVTCVVVDVSHEDPEVKFNWYVDGVEVHNAKTKPREEQYNSTYRVVSVLTVLHQDWLNGKEYKCKVSNKALPASIEKTISKAKGQPREPQVYTLPPCREEMTKNQVSLWCLVKGFYPSDIAVEWESNGQPENNYKTTPPVLDSDGSFFLYSKLTVDKSRWQQGNVFSCSVMHEALHNHYTQKSLSLSPGK
heavy: EVQLVQSGAEVKKPGSSVKVSCKASGYTITDSNIHWVRQAPGQSLEWIGYIYPYNGGTDYNQKFKNRATLTVDNPTNTAYMELSSLRSEDTAFYYCVNGNPWLAYWGQGTLVTVSSASTKGPSVFPLAPSSKSTSGGTAALGCLVKDYFPEPVTVSWNSGALTSGVHTFPAVLQSSGLYSLSSVVTVPSSSLGTQTYICNVNHKPSNTKVDKRVEPKSCDKTHTCPPCPAPEFEGGPSVFLFPPKPKDTLMISRTPEVTCVVVDVSHEDPEVKFNWYVDGVEVHNAKTKPREEQYNSTYRVVSVLTVLHQDWLNGKEYKCKVSNKALPASIEKTISKAKGQPREPQVCTLPPSREEMTKNQVSLSCAVKGFYPSDIAVEWESNGQPENNYKTTPPVLDSDGSFFLVSKLTVDKSRWQQGNVFSCSVMHEALHNRFTQKSLSLSPGK
light: DIQLTQSPSTLSASVGDRVTITCRASESLDNYGIRFLTWFQQKPGKAPKLLMYAASNQGSGVPSRFSGSGSGTEFTLTISSLQPDDFATYYCQQTKEVPWSFGQGTKVEVKRTVAAPSVFIFPPSDEQLKSGTASVVCLLNNFYPREAKVQWKVDNALQSGNSQESVTEQDSKDSTYSLSSTLTLSKADYEKHKVYACEVTHQGLSSPVTKSFNRGEC
- RTCC EC50 (nM), KILR HL-60 T Cell Redirection cytotoxic assay with CD33-expressing target cells [3]: 0.03 nM

- % Positive [5]: 98.3%
- gMFI [5]: 56000 gMFI
- % Positive [6]: 99.7%
- gMFI [6]: 161000 gMFI
- gMFI [7]: 15700 gMFI
- gMFI [8]: 26000 gMFI
- Kd (recombinant CD3 proteins [9]): 78.4 nM
- koff (recombinant CD3 proteins [9]): 0.0117 s⁻¹
- kon (recombinant CD3 proteins [9]): 149000 M⁻¹ s⁻¹
- Jurkat WT/KO (Fold) [10]: 5.3 fold
- Jurkat WT/KO (Fold) [11]: 8.8 fold
B3: CD3 × CD33-BspAb126 (bispecific antibody)
chain 1: QVQLQESGPGLVKPSETLSLTCTVSGGSINSYYWSWIRQPAGKCLEWIGRIYTSGSTNYNPSLKSRVTMSVDTSKKQFSLKLSSVTAADTAVYYCARERISRLYFDYWGQGILVTVSSGGGGSGGGGSGGGGSGGGGSNFMLTQPHSVSESPGKTVTISCTRSSGSIASNYVQWYQQRPGSSPTTVIYEDNQRPSGVPDRFSGSIDSSSNSASLTISGLKTEDEADYYCQSYDRSNRVFGCGTKLTVLDKTHTCPPCPAPEFEGGPSVFLFPPKPKDTLMISRTPEVTCVVVDVSHEDPEVKFNWYVDGVEVHNAKTKPREEQYNSTYRVVSVLTVLHQDWLNGKEYKCKVSNKALPASIEKTISKAKGQPREPQVYTLPPCREEMTKNQVSLWCLVKGFYPSDIAVEWESNGQPENNYKTTPPVLDSDGSFFLYSKLTVDKSRWQQGNVFSCSVMHEALHNHYTQKSLSLSPGK
chain 2: EVQLVQSGAEVKKPGSSVKVSCKASGYTITDSNIHWVRQAPGQSLEWIGYIYPYNGGTDYNQKFKNRATLTVDNPTNTAYMELSSLRSEDTAFYYCVNGNPWLAYWGQGTLVTVSSASTKGPSVFPLAPSSKSTSGGTAALGCLVKDYFPEPVTVSWNSGALTSGVHTFPAVLQSSGLYSLSSVVTVPSSSLGTQTYICNVNHKPSNTKVDKRVEPKSCDKTHTCPPCPAPEFEGGPSVFLFPPKPKDTLMISRTPEVTCVVVDVSHEDPEVKFNWYVDGVEVHNAKTKPREEQYNSTYRVVSVLTVLHQDWLNGKEYKCKVSNKALPASIEKTISKAKGQPREPQVCTLPPSREEMTKNQVSLSCAVKGFYPSDIAVEWESNGQPENNYKTTPPVLDSDGSFFLVSKLTVDKSRWQQGNVFSCSVMHEALHNRFTQKSLSLSPGK
chain 3: DIQLTQSPSTLSASVGDRVTITCRASESLDNYGIRFLTWFQQKPGKAPKLLMYAASNQGSGVPSRFSGSGSGTEFTLTISSLQPDDFATYYCQQTKEVPWSFGQGTKVEVKRTVAAPSVFIFPPSDEQLKSGTASVVCLLNNFYPREAKVQWKVDNALQSGNSQESVTEQDSKDSTYSLSSTLTLSKADYEKHKVYACEVTHQGLSSPVTKSFNRGEC
